Source: US20260364215A1, “Radiopharmaceutical Compositions Targeting Ephrin Type-A Receptor 2 and Uses Thereof” (PeptiDream Inc., priority 2022, published 2026)
Where two headings read alike, the source gives them in different places. Numbered stars: 1 amine (or outer) side, 2 acyl side, 3 side chain; on linkers, the order of the positions; unused ones are H or OH. Bridge positions count the residues as written; N and C are the ends. Square brackets hold non-standard residues; d marks the D form. Side chains are listed from the residue outwards. Peptide text beside a SMILES is read from it. * marks the point of attachment. DOTA(Lu) = O=C1CN2CCN3CCN(CC(=O)*)CCN(CC2)CC(=O)[O][Lu]([O]1)[O]C(=O)C3; DOTA = O=C(O)CN1CCN(CC(=O)O)CCN(CC(=O)*)CCN(CC(=O)O)CC1; Trp(1-Me,7-Cl) = Cn1cc(C[C@H](N)C(=O)O)c2cccc(Cl)c21; dPhe(3-CONH2) = NC(=O)c1cccc(C[C@@H](N)C(=O)O)c1; Piperazinyl(4-CH2COOH) = O=C(O)CN1CCN(*)CC1; Trp(1-Me) = Cn1cc(C[C@H](N)C(=O)O)c2ccccc21; NMemTyr = CN[C@@H](Cc1cccc(O)c1)C(=O)O; NMe3Pal = CN[C@@H](Cc1cccnc1)C(=O)O; NMeF = CN[C@@H](Cc1ccccc1)C(=O)O; hArg = N=C(N)NCCCC[C@H](N)C(=O)O; Gly(cBu) = N[C@H](C(=O)O)C1CCC1; NMeE = CN[C@@H](CCC(=O)O)C(=O)O; Aad = N[C@@H](CCCC(=O)O)C(=O)O; CO = O=C([*:1])[*:2]

How the values were obtained:
[1] = target: T1, Recombinant Human EphA2 Fc Protein (Homo sapiens, UniProt P29317); experiment: Interaction analysis (kinetics, KD) of peptides and conjugates against EphA2 by SPR, Biacore T200, single-cycle kinetics (Examples B15 and B22); assay type: binding
T1 construct: purchased Elabscience
T1 sequence (P29317 24-534 limits assumed): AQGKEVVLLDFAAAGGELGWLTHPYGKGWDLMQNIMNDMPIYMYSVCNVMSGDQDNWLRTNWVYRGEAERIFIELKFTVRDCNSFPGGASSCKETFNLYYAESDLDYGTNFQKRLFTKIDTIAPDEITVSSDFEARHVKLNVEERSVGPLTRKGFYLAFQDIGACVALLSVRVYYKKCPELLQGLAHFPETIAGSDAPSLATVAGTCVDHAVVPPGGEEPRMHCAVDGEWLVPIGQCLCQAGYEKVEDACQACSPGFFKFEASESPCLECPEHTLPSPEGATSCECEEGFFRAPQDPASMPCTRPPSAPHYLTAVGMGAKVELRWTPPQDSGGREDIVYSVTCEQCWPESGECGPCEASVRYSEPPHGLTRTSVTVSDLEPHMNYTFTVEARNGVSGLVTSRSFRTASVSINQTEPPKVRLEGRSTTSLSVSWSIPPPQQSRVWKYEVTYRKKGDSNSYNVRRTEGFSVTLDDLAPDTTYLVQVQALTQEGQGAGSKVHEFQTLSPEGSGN
In short: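 Biacore T200 SPR with Fc-tagged human EphA2 captured via anti-human antibody; running buffer HBS-P+ pH 7.4 with 1% DMSO, 25 °C. Five serial dilutions of peptide or conjugate run by single-cycle kinetics; KD from ka and kd after baseline subtraction.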

[2] = Plasma stability (% remaining of test compound in CD-1 (ICR) mouse plasma at 37 °C; Example C1); assay type: in vitro ADME; details: for % Remaining Mouse: 0 min; for remaining at 2 h, 2 µM: pH 7.4, 120 min; for half-life at 2 µM: pH 7.4, read-out: T1/2 (min) Mouse
Protocol: Example C1. Plasma Stability
The pooled frozen CD-1 (ICR) mouse plasma was thawed in a water bath at 37 °C prior to experiment. Plasma was centrifuged at 4000 rpm for 5 min and the clots were removed if any. pH was adjusted to 7.4±0.1 if required.
Plasma (98 μL) and test compounds (2 μL, 100 μM, in DMSO) or reference compound propantheline bromide (2 μL, 100 μM in 40% v/v MeOH/H2O) were added to the individual wells of a 96-well microtiter plate in duplicate. The plate was incubated at 37 °C. During the incubation, aliquots were withdrawn at 0, 10, 30, 60, 120, and 300 minutes. 100 μL 4% H3PO4 and 800 μL of stop solution (200 ng/mL tolbutamide and 200 ng/mL labetalol in 100% CH3CN) were added to precipitate unwanted proteins. After mixing thoroughly, the quenched aliquots were centrifuged at 4,000 rpm for 20 min. Aliquots (100 μL) of supernatant were transferred to a new plate. The samples were shaken at 800 rpm for 10 min before performing LC-MS/MS analysis.
The analytes were detected by a multiple reaction monitoring method using a SCIEX Triple Quad 6500+ system equipped with an ACQUITY UPLC HSS T3 column (100 Å, 1.8 μm, 2.1 mm×30 mm). Mobile phase A: water with 0.1% formic acid; Mobile phase B: CH3CN with 0.1% formic acid.
(§1) The % remaining of test compound after incubation in plasma was calculated using the following equation:
(§2) % Remaining=100×(PAR(t)/PAR(t0)), where PAR is the peak area ratio of analyte versus internal standard (IS)

[3] = Plasma stability (% remaining and T1/2 of test compound in human plasma; Table C1); assay type: in vitro ADME; details: for % Remaining Human: 0 min; for remaining at 2 h: 120 min
Protocol: as §1, §2

[4] = target: T2, EphA2 (Biotin-Avi-His-EphA2; Fc-EphA2 where the peptide had a biotin) (Homo sapiens, UniProt P29317); experiment: Surface plasmon resonance (SPR) peptide binding, Biacore 8K, immobilized EphA2, single cycle kinetics (Example C7); details: 25 °C, Langmuir 1:1
T2 construct: His; purchased SinoBiologicals 13926-H27H-B
T2 sequence (P29317 24-534 limits assumed): as above
Protocol: Example C7. Surface Plasmon Resonance (SPR)
For analysis of peptide binding, a Biacore 8K instrument was used utilizing a SA chip. Biotin-Avi-His-EphA2 (SinoBiologicals, 13926-H27H-B) was immobilized on the chip using streptavidin-biotin chemistry at 25 °C in HBS-P+ buffer (10 mM HEPES, 150 mM NaCl, 0.05% Tween-20, pH 7.4) to a level of 1000-2000 RU (dependent on the analyte molecular weight). […] A dilution series of peptides was prepared in this buffer with a final DMSO concentration of 0.1% with a top peptide concentration between 10-100 nM and 9 further 2-fold dilutions. The SPR analysis was run at 25 °C at a flow rate of 30 μL/min in HBS-P+ with 0.1% DMSO running buffer and with a 120 second association and 1,200 second dissociation using single cycle kinetics methodology. All data was analyzed using Biacore Insight Evaluation Software version 4. Data was fitted using a Langmuir 1:1 binding model.

[5] = conjugates, Biacore T200 according to Example B15, Table B16, read-out: SPR Kd

| Structure (SMILES) | Kd [1, 5] [nM] | % Remaining Mouse [2] [%] | remaining at 2 h, 2 µM [2] [%] | half-life at 2 µM [2] [min] | half-life [3] [h] | % Remaining Human [3] [%] | remaining at 2 h [3] [%] | KD [4] [M⁻¹] | Kd [1] [nM] |
| --- | --- | --- | --- | --- | --- | --- | --- | --- | --- |
| CC(C)C[C@@H]1NC(=O)[C@H](CC(N)=O)NC(=O)[C@H](Cc2cccnc2)N(C)C(=O)[C@@H](C)NC(=O)CSC[C@@H](C(=O)N[C@H](CCCCNC(=O)CN(C)C(=O)CN(C)C(=O)CN(C)C(=O)CN(C)C(=O)CN(C)C(=O)CN(C)C(=O)CN(C)C(=O)CN(C)C(=O)CN(C)C(=O)CN(C)C(=O)CCNC(=O)CN2CCN(CC(=O)O)CCN(CC(=O)O)CCN(CC(=O)O)CC2)C(N)=O)NC(=O)[C@H](CCCC(N)=O)NC(=O)[C@H]([C@@H](C)O)NC(=O)[C@H](Cc2cn(C)c3ccccc23)NC(=O)[C@H](CCCCNC(=O)N2CCN(CC(=O)O)CC2)NC(=O)[C@H](Cc2cn(C)c3ccccc23)NC(=O)[C@H](Cc2ccccc2)N(C)C(=O)[C@H](CCCC(N)=O)NC1=O.[Lu+3] [PDC_EphA2-00008093-C310] | < 1 | 100.0 | 107 | > 289 | > 4.82 | 100.0 | 99 | – | – |
| CC(C)C[C@@H]1NC(=O)[C@H](CC(N)=O)NC(=O)[C@H](Cc2cccnc2)N(C)C(=O)[C@@H](C)NC(=O)CSC[C@@H](C(=O)N[C@H](CCCCNC(=O)CN2CCN(CC(=O)O)CCN(CC(=O)O)CCN(CC(=O)O)CC2)C(N)=O)NC(=O)[C@H](CCCC(N)=O)NC(=O)[C@H]([C@@H](C)O)NC(=O)[C@H](Cc2cn(C)c3ccccc23)NC(=O)[C@H](CCCCNC(=O)N2CCN(CC(=O)O)CC2)NC(=O)[C@H](Cc2cn(C)c3ccccc23)NC(=O)[C@H](Cc2ccccc2)N(C)C(=O)[C@H](CCCC(N)=O)NC1=O.[Lu+3] [PDC_EphA2-00008093-C302] ({CH2CO}-[dA][NMe3Pal]NL[Aad](NH2)[NMeF][Trp(1-Me)]K([CO-Piperazinyl(4-CH2COOH)])[Trp(1-Me)]T[Aad](NH2)C[dK](DOTA)-NH2; thioether N-12) | < 1 | 100.0 | 101 | > 289 | > 4.82 | 100.0 | 102 | – | – |
| C[C@@H](O)[C@@H]1NC(=O)[C@H](Cc2cn(C)c3ccccc23)NC(=O)[C@H](CCCCNC(=O)N2CCN(CC(=O)O)CC2)NC(=O)[C@H](Cc2cn(C)c3c(Cl)cccc23)NC(=O)[C@H](CCC(=O)O)N(C)C(=O)[C@H](CCCC(N)=O)NC(=O)[C@H](C2CCC2)NC(=O)[C@H](CC(N)=O)NC(=O)[C@H](Cc2cccnc2)N(C)C(=O)[C@@H](Cc2cccc(C(N)=O)c2)NC(=O)CSC[C@@H](C(=O)N[C@H](CCCCNC(=O)CN2CCN(CC(=O)O)CCN(CC(=O)O)CCN(CC(=O)O)CC2)C(N)=O)NC(=O)[C@H](CCCCNC(=N)N)NC1=O.[Lu+3] [PDC_EphA2-00019443-C302] ({CH2CO}-[dPhe(3-CONH2)][NMe3Pal]N[Gly(cBu)][Aad](NH2)[NMeE][Trp(1-Me,7-Cl)]K([CO-Piperazinyl(4-CH2COOH)])[Trp(1-Me)]T[hArg]C[dK](DOTA)-NH2; thioether N-12) | < 1 | – | – | – | – | – | – | 2.7e-11 | – |
| C[C@@H](O)[C@@H]1NC(=O)[C@H](Cc2cn(C)c3ccccc23)NC(=O)[C@H](CCCCNC(=O)N2CCN(CC(=O)O)CC2)NC(=O)[C@H](Cc2cn(C)c3c(Cl)cccc23)NC(=O)[C@H](CCC(=O)O)N(C)C(=O)[C@H](CCCC(N)=O)NC(=O)[C@H](C2CCC2)NC(=O)[C@H](CC(N)=O)NC(=O)[C@H](Cc2cccc(O)c2)N(C)C(=O)[C@@H](Cc2cccc(C(N)=O)c2)NC(=O)CSC[C@@H](C(=O)N[C@H](CCCCNC(=O)CN2CCN3CCN4CCN(CC2)CC(=O)[O][Lu]([O]C(=O)C3)[O]C(=O)C4)C(=O)O)NC(=O)[C@H](CCCC(N)=O)NC1=O [PDC_EphA2-00026775] ({CH2CO}-[dPhe(3-CONH2)][NMemTyr]N[Gly(cBu)][Aad](NH2)[NMeE][Trp(1-Me,7-Cl)]K([CO-Piperazinyl(4-CH2COOH)])[Trp(1-Me)]T[Aad](NH2)C[dK](DOTA(Lu))-OH; thioether N-12) | – | – | – | – | – | – | – | – | < 1 |
